Test results published in patent US20240101686A1 (SIMCERE ZAIMING PHARMACEUTICAL, published 2024).
Read-outs that look alike come from different tables or passages of the source. Each block holds one binder with its values, some of them ahead of it.

Legend:
[1] = molecular target: T1, human EGFR-His-tagged fusion protein (human, UniProt P00533 25-645)
T1 construct: extracellular domain; bought; also called human EGFR protein; human EGFR-His protein

[2] = molecular target: T1, human EGFR-His-tagged fusion protein; remark: listed apart in the source
[3] = molecular target: T1, human EGFR-His-tagged fusion protein; remark: listed apart in the source
[4] = molecular target: T1, human EGFR-His-tagged fusion protein; remark: listed apart in the source
[5] = molecular target: T1, human EGFR-His-tagged fusion protein; remark: listed apart in the source
[6] = molecular target: T1, human EGFR-His-tagged fusion protein; remark: listed apart in the source
[7] = molecular target: T1, human EGFR-His-tagged fusion protein; remark: listed apart in the source
[8] = molecular target: T1, human EGFR-His-tagged fusion protein; remark: listed apart in the source
pepvIII polypeptide = molecular target: T2, pepvIII polypeptide (human)
T2 construct: synthetic peptide (GL Biochem); also called Leu25-His37 polypeptide
T2 peptide: LEEKKGNYVVTDH

murine EGFR protein [9] = molecular target: T3, murine EGFR protein (murine, UniProt Q01279 25-647)
T3 construct: Bought protein

murine EGFR protein [10] = molecular target: T3, murine EGFR protein; remark: listed apart in the source
murine EGFR protein [11] = molecular target: T3, murine EGFR protein; remark: listed apart in the source
murine EGFR protein [12] = molecular target: T3, murine EGFR protein; remark: listed apart in the source
[13] = molecular target: T4, human EGFRvIII-His tag protein (extracellular domain Leu25-Ser378) (human, UniProt P00533 298-645)
T4 construct: Made in HEK293E cells, purified on nickel column; also called human EGFRvIII protein; EGFRvIII protein; not shown: His tag

murine EGFR protein [14] = molecular target: T3, murine EGFR protein; remark: listed apart in the source
[15] = molecular target: T4, human EGFRvIII-His tag protein …; remark: listed apart in the source
murine EGFR protein [16] = molecular target: T3, murine EGFR protein; remark: listed apart in the source
[17] = molecular target: T4, human EGFRvIII-His tag protein …; remark: listed apart in the source
[18] = molecular target: T4, human EGFRvIII-His tag protein …; remark: listed apart in the source
murine EGFR protein [19] = molecular target: T3, murine EGFR protein; remark: listed apart in the source
[20] = molecular target: T4, human EGFRvIII-His tag protein …; remark: listed apart in the source
[21] = molecular target: T4, human EGFRvIII-His tag protein …; remark: listed apart in the source
[22] = molecular target: T4, human EGFRvIII-His tag protein …; remark: listed apart in the source
murine EGFR protein [23] = molecular target: T3, murine EGFR protein; remark: listed apart in the source
[24] = molecular target: T4, human EGFRvIII-His tag protein …; remark: listed apart in the source
[25] = molecular target: T5, cynomolgus monkey EGFR on HEK293T-monkey EGFR cells (cynomolgus monkey, UniProt P55245 25-1210 (rhesus entry)); test: FACS, HEK293T-monkey EGFR cells
[26] = molecular target: T6, monkey EGFR protein (commercial, SB, catalog number 90285-C08H) (monkey); test: ELISA, coated monkey EGFR protein, antibody 1 nM
T6 construct: Bought protein used to coat ELISA plates

[27] = molecular target: T6, monkey EGFR protein (commercial, SB, …); test: ELISA, coated monkey EGFR protein, antibody 10 nM
[28] = molecular target: T6, monkey EGFR protein (commercial, SB, …); test: ELISA, coated monkey EGFR protein, antibody 0.1 nM
[29] = molecular target: T6, monkey EGFR protein (commercial, SB, …); test: ELISA, coated monkey EGFR protein, antibody 100 nM
[30] = molecular target: T6, monkey EGFR protein (commercial, SB, …); test: ELISA, coated monkey EGFR protein, antibody 0.01 nM
[31] = molecular target: T5, cynomolgus monkey EGFR on …; test: FACS, HEK293T-monkey EGFR cells (specificity assay)
[32] = molecular target: T6, monkey EGFR protein (commercial, SB, …); test: ELISA, coated monkey EGFR protein, antibody 0.001 nM
[33] = molecular target: T6, monkey EGFR protein (commercial, SB, …); test: ELISA, coated monkey EGFR protein, antibody 0.0001 nM
[34] = molecular target: T6, monkey EGFR protein (commercial, SB, …); test: ELISA, coated monkey EGFR protein, antibody 0 nM (blank)
monkey EGFR protein = molecular target: T7, monkey EGFR protein (cynomolgus monkey, UniProt P55245 25-645 (rhesus entry))
T7 construct: Bought protein (SB 90285-C08H); also called cynomolgus monkey EGFR

murine EGFR protein [35] = molecular target: T8, murine EGFR protein (murine, UniProt Q01279 25-647); remark: listed apart in the source
T8 construct: Bought protein

human EGFR protein = molecular target: T9, human EGFR protein (human, UniProt P00533 25-645)
T9 construct: also called human EGFR-His; human EGFR-ECD protein; not shown: His tag

[36] = molecular target: T10, human EGFRvIII-His tag protein (human, UniProt P00533 298-645)
T10 construct: Made in HEK293E, purified on nickel column; also called human EGFRvIII protein; not shown: His tag

OD450 [1]: 0.05
OD450 [2]: 0.07
OD450 [3]: 0.05
OD450 [4]: 0.09
OD450 [5]: 0.05
OD450 [6]: 0.06
OD450 [7]: 0.05
OD450 [8]: 0.05
binding result (pepvIII polypeptide): binds
B1: 30D8-hIgG1 (antibody, V domains shown)
VH: EVQLVESGGGLVKPGGSLRLSCEASGFTFSDAWMSWVRQAPGKGLEWVGRIKSKTDGGTTDYVVPLNGRFIISRDDSRNTLYLQLNNLKTEDTAVYYCTTVPGSYGYWGQGTLVTVSS
VL: DIVMTQSPLSLPVTPGEPASISCRSSQSLLHNKRNNYLDWFLQKPGQSPQLLIYLASNRASGVPDRFSGGGSGTDFTLKISRVEAEDVGVYYCMQAQQTPITFGQGTRLEIK

OD450 (murine EGFR protein [9]): 0.06
OD450 (murine EGFR protein [10]): 0.06
OD450 (murine EGFR protein [11]): 0.06
OD450 (murine EGFR protein [12]): 0.1
OD450 [13]: 2.25
OD450 (murine EGFR protein [14]): 0.06
OD450 [15]: 2.61
OD450 (murine EGFR protein [16]): 0.06
OD450 [17]: 1.89
OD450 [18]: 2.52
OD450 (murine EGFR protein [19]): 0.06
OD450 [20]: 0.69
OD450 [21]: 0.15
OD450 [22]: 0.07
OD450 (murine EGFR protein [23]): 0.06
OD450 [24]: 0.07
B2: 30D8-hIgG1 (antibody, V domains shown)
VH: B1 VH
VL: B1 VL
notes: Variable regions cloned with human IgG1 heavy chain constant region and human light chain constant region

Max MFI [25]: 77
binding result [25]: no binding
OD450 [26]: 0.06
OD450 [27]: 0.08
OD450 [28]: 0.06
OD450 [29]: 0.19
OD450 [30]: 0.06
Max_MFI [31]: 314
OD450 [32]: 0.06
OD450 [33]: 0.05
OD450 [34]: 0.06
B3: 30D8-hIgG1 (antibody, V domains shown)
VH: B1 VH
VL: B1 VL
notes: Anti-EGFRvIII control

Kd [36]: 11.7 nM
koff [36]: 0.00229 s⁻¹
kon [36]: 197000 M⁻¹ s⁻¹
B4: 30D8-hIgG1 (antibody, V domains shown)
VH: B1 VH
VL: B1 VL
notes: anti-EGFRvIII control
binding result (monkey EGFR protein): no binding (tested: 200 nM (highest antigen concentration))
binding result (murine EGFR protein [35]): no binding (tested: 200 nM (highest antigen concentration))
binding result (human EGFR protein): no binding (tested: 30 µg/mL (highest EGFR concentration))
